Assay results taken from patent US20160039904A1, “STABILIZED SINGLE HUMAN CD4 DOMAINS AND FUSION PROTEINS” (priority 2013, published 2016).

Assays:
Experiment in all cases: cell-based or functional assay
[1] = biological target: HIV-1 Env of isolate AE03 (HIV-1)
[2] = biological target: HIV-1 Env of isolate AE20 (HIV-1)
[3] = biological target: HIV-1 Env of isolate CH110 (HIV-1)
[4] = biological target: HIV-1 Env of isolate CH114 (HIV-1)
[5] = biological target: HIV-1 Env of isolate CH117 (HIV-1)
[6] = biological target: HIV-1 Env of isolate CH119 (HIV-1)
[7] = biological target: HIV-1 Env of isolate CH120 (HIV-1)
[8] = biological target: HIV-1 Env of isolate CH64 (HIV-1)
[9] = biological target: HIV-1 Env of isolate CH70 (HIV-1)
[10] = biological target: HIV-1 Env of isolate CH91 (HIV-1)
[11] = biological target: HIV-1 Env of isolate CNE1 (HIV-1)
[12] = biological target: HIV-1 Env of isolate CNE107 (HIV-1)
[13] = biological target: HIV-1 Env of isolate CNE11 (HIV-1)
[14] = biological target: HIV-1 Env of isolate CNE14 (HIV-1)
[15] = biological target: HIV-1 Env of isolate CNE15 (HIV-1)
[16] = biological target: HIV-1 Env of isolate CNE16 (HIV-1)
[17] = biological target: HIV-1 Env of isolate CNE17 (HIV-1)
[18] = biological target: HIV-1 Env of isolate CNE20 (HIV-1)
[19] = biological target: HIV-1 Env of isolate CNE23 (HIV-1)
[20] = biological target: HIV-1 Env of isolate CNE3 (HIV-1)
[21] = biological target: HIV-1 Env of isolate CNE30 (HIV-1)
[22] = biological target: HIV-1 Env of isolate CNE4 (HIV-1)
[23] = biological target: HIV-1 Env of isolate CNE40 (HIV-1)
[24] = biological target: HIV-1 Env of isolate CNE46 (HIV-1)
[25] = biological target: HIV-1 Env of isolate CNE47 (HIV-1)
[26] = biological target: HIV-1 Env of isolate CNE49 (HIV-1)
[27] = biological target: HIV-1 Env of isolate CNE5 (HIV-1)
[28] = biological target: HIV-1 Env of isolate CNE53 (HIV-1)
[29] = biological target: HIV-1 Env of isolate CNE55 (HIV-1)
[30] = biological target: HIV-1 Env of isolate CNE57 (HIV-1)
[31] = biological target: HIV-1 Env of isolate CNE58 (HIV-1)
[32] = biological target: HIV-1 Env of isolate CNE59 (HIV-1)
[33] = biological target: HIV-1 Env of isolate CNE6 (HIV-1)
[34] = biological target: HIV-1 Env of isolate CNE64 (HIV-1)
[35] = biological target: HIV-1 Env of isolate CNE65 (HIV-1)
[36] = biological target: HIV-1 Env of isolate CNE66 (HIV-1)
[37] = biological target: HIV-1 Env of isolate CNE68 (HIV-1)
[38] = biological target: HIV-1 Env of isolate CNE7 (HIV-1)
[39] = biological target: HIV-1 Env of isolate CNE9 (HIV-1)
[40] = biological target: HIV-1 Env of isolate GX2010.36 (HIV-1)
[41] = biological target: HIV-1 Env of isolate YN192.31 (HIV-1)

## C34 (peptide)
[1]
  neutralization IC50: 24 nM
  neutralization IC90: 85 nM
[2]
  neutralization IC50: 7.4 nM
  neutralization IC90: 69 nM
[3]
  neutralization IC50: 0.78 nM
  neutralization IC90: 6.3 nM
[4]
  neutralization IC50: 5.4 nM
  neutralization IC90: 25 nM
[5]
  neutralization IC50: 0.6 nM
  neutralization IC90: 3.2 nM
[6]
  neutralization IC50: 3.3 nM
  neutralization IC90: 20 nM
[7]
  neutralization IC50: 4.6 nM
  neutralization IC90: 39 nM
[8]
  neutralization IC50: 1.2 nM
  neutralization IC90: 6.7 nM
[9]
  neutralization IC50: 7.6 nM
  neutralization IC90: 84 nM
[10]
  neutralization IC50: 2.3 nM
  neutralization IC90: 12 nM
[11]
  neutralization IC50: 0.73 nM
  neutralization IC90: 6.8 nM
[12]
  neutralization IC50: 2.8 nM
  neutralization IC90: 32 nM
[13]
  neutralization IC50: 4.6 nM
  neutralization IC90: 42 nM
[14]
  neutralization IC50: 3.9 nM
  neutralization IC90: 17 nM
[15]
  neutralization IC50: 3.8 nM
  neutralization IC90: 22 nM
[16]
  neutralization IC50: 11 nM
  neutralization IC90: 51 nM
[17]
  neutralization IC50: 3.2 nM
  neutralization IC90: 82 nM
[18]
  neutralization IC50: 3.3 nM
  neutralization IC90: 14 nM
[19]
  neutralization IC50: 2.1 nM
  neutralization IC90: 18 nM
[20]
  neutralization IC50: 7.1 nM
  neutralization IC90: 71 nM
[21]
  neutralization IC50: 14 nM
  neutralization IC90: 110 nM
[22]
  neutralization IC50: 6.3 nM
  neutralization IC90: 23 nM
[23]
  neutralization IC50: 0.77 nM
  neutralization IC90: 7.8 nM
[24]
  neutralization IC50: 6.4 nM
  neutralization IC90: 115 nM
[25]
  neutralization IC50: 1.9 nM
  neutralization IC90: 14 nM
[26]
  neutralization IC50: 2.3 nM
  neutralization IC90: 12 nM
[27]
  neutralization IC50: 5.9 nM
  neutralization IC90: 63 nM
[28]
  neutralization IC50: 2 nM
  neutralization IC90: 23 nM
[29]
  neutralization IC50: 7.9 nM
  neutralization IC90: 103 nM
[30]
  neutralization IC50: 2 nM
  neutralization IC90: 14 nM
[31]
  neutralization IC50: 2 nM
  neutralization IC90: 13 nM
[32]
  neutralization IC50: 3.4 nM
  neutralization IC90: 28 nM
[33]
  neutralization IC50: 1.6 nM
  neutralization IC90: 15 nM
[34]
  neutralization IC50: 5.1 nM
  neutralization IC90: 21 nM
[35]
  neutralization IC50: 3.1 nM
  neutralization IC90: 16 nM
[36]
  neutralization IC50: 2.1 nM
  neutralization IC90: 11 nM
[37]
  neutralization IC50: 2.2 nM
  neutralization IC90: 12 nM
[38]
  neutralization IC50: 6.4 nM
  neutralization IC90: 22 nM
[39]
  neutralization IC50: 0.87 nM
  neutralization IC90: 5.8 nM
[40]
  neutralization IC50: 15 nM
  neutralization IC90: 165 nM
[41]
  neutralization IC50: 27 nM
  neutralization IC90: 225 nM

## 4Dm2m (Fc fusion)
[1]
  neutralization IC50: 0.67 nM
  neutralization IC90: 12 nM
[2]
  neutralization IC50: 0.72 nM
  neutralization IC90: 5.8 nM
[3]
  neutralization IC50: 0.11 nM
  neutralization IC90: 0.83 nM
[4]
  neutralization IC50: 0.11 nM
  neutralization IC90: 4 nM
[5]
  neutralization IC50: 0.33 nM
  neutralization IC90: 15 nM
[6]
  neutralization IC50: 0.17 nM
  neutralization IC90: 3.4 nM
[7]
  neutralization IC50: 0.33 nM
  neutralization IC90: 6.6 nM
[8]
  neutralization IC50: 0.17 nM
  neutralization IC90: 1.6 nM
[9]
  neutralization IC50: 0.11 nM
  neutralization IC90: 1.2 nM
[10]
  neutralization IC50: 0.39 nM
  neutralization IC90: 10 nM
[11]
  neutralization IC50: 0.11 nM
  neutralization IC90: 0.61 nM
[12]
  neutralization IC50: 0.52 nM
  neutralization IC90: 18 nM
[13]
  neutralization IC50: 0.33 nM
  neutralization IC90: 2.6 nM
[14]
  neutralization IC50: 0.17 nM
  neutralization IC90: 2.4 nM
[15]
  neutralization IC50: 0.29 nM
  neutralization IC90: 2.6 nM
[16]
  neutralization IC50: 0.08 nM
  neutralization IC90: 1.2 nM
[17]
  neutralization IC50: 0.11 nM
  neutralization IC90: 2.4 nM
[18]
  neutralization IC50: 0.05 nM
  neutralization IC90: 5.3 nM
[19]
  neutralization IC50: 0.49 nM
  neutralization IC90: 4.9 nM
[20]
  neutralization IC50: 0.39 nM
  neutralization IC90: 2.8 nM
[21]
  neutralization IC50: 0.07 nM
  neutralization IC90: 0.44 nM
[22]
  neutralization IC50: 0.11 nM
  neutralization IC90: 2.4 nM
[23]
  neutralization IC50: 0.01 nM
  neutralization IC90: 0.11 nM
[24]
  neutralization IC50: 0.27 nM
  neutralization IC90: 9.4 nM
[25]
  neutralization IC50: 0.11 nM
  neutralization IC90: 2.8 nM
[26]
  neutralization IC50: 0.05 nM
  neutralization IC90: 0.56 nM
[27]
  neutralization IC50: 0.67 nM
  neutralization IC90: 8.7 nM
[28]
  neutralization IC50: 0.24 nM
  neutralization IC90: 5.5 nM
[29]
  neutralization IC50: 0.45 nM
  neutralization IC90: 10 nM
[30]
  neutralization IC50: 1.2 nM
  neutralization IC90: 19 nM
[31]
  neutralization IC50: 2.1 nM
  neutralization IC90: > 28 nM
[32]
  neutralization IC50: 0.17 nM
  neutralization IC90: 2.7 nM
[33]
  neutralization IC50: 0.33 nM
  neutralization IC90: 2.3 nM
[34]
  neutralization IC50: 0.56 nM
  neutralization IC90: 3.2 nM
[35]
  neutralization IC50: 0.28 nM
  neutralization IC90: 3.3 nM
[36]
  neutralization IC50: 0.17 nM
  neutralization IC90: 7.7 nM
[37]
  neutralization IC50: 0.11 nM
  neutralization IC90: 0.78 nM
[38]
  neutralization IC50: 0.18 nM
  neutralization IC90: 1.8 nM
[39]
  neutralization IC50: 0.22 nM
  neutralization IC90: 3.2 nM
[40]
  neutralization IC50: 0.11 nM
  neutralization IC90: 18 nM
[41]
  neutralization IC50: 0.89 nM
  neutralization IC90: 21 nM

## T20 (enfuvirtide) (peptide)
[1]
  neutralization IC50: 304 nM
  neutralization IC90: 510 nM
[2]
  neutralization IC50: 212 nM
  neutralization IC90: 572 nM
[3]
  neutralization IC50: 4.3 nM
  neutralization IC90: 262 nM
[4]
  neutralization IC50: 102 nM
  neutralization IC90: > 750 nM
[5]
  neutralization IC50: 2.3 nM
  neutralization IC90: 34 nM
[6]
  neutralization IC50: 2 nM
  neutralization IC90: 25 nM
[7]
  neutralization IC50: 11 nM
  neutralization IC90: 443 nM
[8]
  neutralization IC50: 3.1 nM
  neutralization IC90: 25 nM
[9]
  neutralization IC50: 65 nM
  neutralization IC90: > 750 nM
[10]
  neutralization IC50: 8.6 nM
  neutralization IC90: 310 nM
[11]
  neutralization IC50: 1.6 nM
  neutralization IC90: 17 nM
[12]
  neutralization IC50: 3.8 nM
  neutralization IC90: 45 nM
[13]
  neutralization IC50: 3.5 nM
  neutralization IC90: 36 nM
[14]
  neutralization IC50: 9.7 nM
  neutralization IC90: 305 nM
[15]
  neutralization IC50: 14 nM
  neutralization IC90: 157 nM
[16]
  neutralization IC50: 14 nM
  neutralization IC90: 169 nM
[17]
  neutralization IC50: 42 nM
  neutralization IC90: 676 nM
[18]
  neutralization IC50: 5.5 nM
  neutralization IC90: 41 nM
[19]
  neutralization IC50: 15 nM
  neutralization IC90: 228 nM
[20]
  neutralization IC50: 5.6 nM
  neutralization IC90: 38 nM
[21]
  neutralization IC50: 26 nM
  neutralization IC90: 285 nM
[22]
  neutralization IC50: 1.7 nM
  neutralization IC90: 14 nM
[23]
  neutralization IC50: 4.9 nM
  neutralization IC90: 108 nM
[24]
  neutralization IC50: 26 nM
  neutralization IC90: 743 nM
[25]
  neutralization IC50: 4.9 nM
  neutralization IC90: 42 nM
[26]
  neutralization IC50: 9.1 nM
  neutralization IC90: 236 nM
[27]
  neutralization IC50: 2.1 nM
  neutralization IC90: 19 nM
[28]
  neutralization IC50: 51 nM
  neutralization IC90: 721 nM
[29]
  neutralization IC50: 26 nM
  neutralization IC90: 549 nM
[30]
  neutralization IC50: 2.5 nM
  neutralization IC90: 24 nM
[31]
  neutralization IC50: 54 nM
  neutralization IC90: 745 nM
[32]
  neutralization IC50: 1.4 nM
  neutralization IC90: 17 nM
[33]
  neutralization IC50: 1.4 nM
  neutralization IC90: 15 nM
[34]
  neutralization IC50: 1.9 nM
  neutralization IC90: 16 nM
[35]
  neutralization IC50: 5.9 nM
  neutralization IC90: 78 nM
[36]
  neutralization IC50: 129 nM
  neutralization IC90: 729 nM
[37]
  neutralization IC50: 32 nM
  neutralization IC90: 321 nM
[38]
  neutralization IC50: 4.3 nM
  neutralization IC90: 58 nM
[39]
  neutralization IC50: 1.7 nM
  neutralization IC90: 14 nM
[40]
  neutralization IC50: 255 nM
  neutralization IC90: > 750 nM
[41]
  neutralization IC50: 42 nM
  neutralization IC90: 336 nM
